Measured values published in patent US20060240001A1 (AGOURON PHARMACEUTICALS, published 2006).
Substitutions are numbered along the chain they refer to.

T1: recombinant human E-cadherin (R&D Systems 648-EC-100) (human, UniProt P12830 155-707)
T1 construct: Bought protein
T1 sequence (looked up): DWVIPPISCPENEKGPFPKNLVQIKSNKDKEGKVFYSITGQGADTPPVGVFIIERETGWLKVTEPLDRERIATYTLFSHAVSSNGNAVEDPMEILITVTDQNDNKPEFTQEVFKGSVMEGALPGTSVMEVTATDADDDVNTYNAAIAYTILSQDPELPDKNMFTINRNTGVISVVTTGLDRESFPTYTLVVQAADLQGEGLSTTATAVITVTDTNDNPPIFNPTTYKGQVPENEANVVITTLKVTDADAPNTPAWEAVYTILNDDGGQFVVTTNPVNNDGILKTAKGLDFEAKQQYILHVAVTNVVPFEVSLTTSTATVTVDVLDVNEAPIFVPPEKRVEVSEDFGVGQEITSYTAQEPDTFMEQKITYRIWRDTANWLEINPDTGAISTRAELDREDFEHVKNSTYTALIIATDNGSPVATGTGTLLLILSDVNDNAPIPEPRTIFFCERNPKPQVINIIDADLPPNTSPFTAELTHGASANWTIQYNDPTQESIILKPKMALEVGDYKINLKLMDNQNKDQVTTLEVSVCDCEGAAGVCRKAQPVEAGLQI

B1: 196-g03 (antibody, V domains shown)
VH: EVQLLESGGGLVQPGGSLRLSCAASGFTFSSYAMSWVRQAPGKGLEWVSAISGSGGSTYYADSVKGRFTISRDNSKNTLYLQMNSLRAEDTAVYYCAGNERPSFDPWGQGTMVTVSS
VL: QSALTQPASVSGSPGQSITISCTGTSNDVGAYNYVSWYQQHPGKAPKLILSEVNKRPSGVSNRFSGSKSGNTASLSISGLQAEDEADYYCTSYTMGSTFMLFGGGTKLTVL
B2: 195-e11 (antibody, V domains shown)
VH: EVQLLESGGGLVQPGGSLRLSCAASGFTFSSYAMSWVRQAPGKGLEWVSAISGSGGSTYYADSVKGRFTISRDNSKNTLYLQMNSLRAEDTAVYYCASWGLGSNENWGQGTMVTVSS
VL: B1 VL with T91S, Y93F, M95S, S97I, T98V, M100N
B3: 196-d10 (antibody, V domains shown)
VH: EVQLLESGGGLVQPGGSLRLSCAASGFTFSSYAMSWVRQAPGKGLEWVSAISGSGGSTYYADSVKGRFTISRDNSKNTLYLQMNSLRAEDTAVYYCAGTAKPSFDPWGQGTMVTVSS
VL: B1 VL
notes: Tested as IgG converted from scFv; also called 196-d10 IgG
B4: 200-h06 (antibody, V domains shown)
VH: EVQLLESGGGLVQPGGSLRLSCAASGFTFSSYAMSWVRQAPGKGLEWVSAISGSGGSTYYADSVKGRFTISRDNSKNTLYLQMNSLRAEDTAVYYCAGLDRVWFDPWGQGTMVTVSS
VL: B1 VL with T94R, G96D
B5: 194-g09 (antibody, V domains shown)
VH: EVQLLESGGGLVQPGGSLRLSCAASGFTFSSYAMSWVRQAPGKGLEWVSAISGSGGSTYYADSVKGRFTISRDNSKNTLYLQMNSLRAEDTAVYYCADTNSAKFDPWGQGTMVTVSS
VL: B1 VL with Q40R, D87E, T91S
B6: 194-a02 (antibody, V domains shown)
VH: not shown
VL: B1 VL with T91S, Y93F, M95S, S97L, T98P, F99W, M100V
notes: Tested as IgG converted from scFv
B7: 194-b09 (antibody, V domains shown)
VH: not shown
VL: B1 VL with T91S, Y93F, M95S, S97L, T98P, F99W, M100V, L101V
B8: 196-h02 (antibody, V domains shown)
VH: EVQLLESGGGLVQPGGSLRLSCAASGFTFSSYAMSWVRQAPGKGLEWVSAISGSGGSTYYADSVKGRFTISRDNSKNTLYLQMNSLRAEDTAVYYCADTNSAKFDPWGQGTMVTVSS
VL: B1 VL
notes: Tested as IgG converted from scFv; also called 196-h02 IgG
B9: 195-a09 (antibody, V domains shown)
VH: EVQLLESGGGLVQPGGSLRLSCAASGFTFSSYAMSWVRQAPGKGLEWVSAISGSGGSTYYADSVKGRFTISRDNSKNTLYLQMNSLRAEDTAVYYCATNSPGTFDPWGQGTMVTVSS
VL: B1 VL
notes: Tested as IgG converted from scFv; also called 195-a09 IgG
B10: 194-e01 (antibody, V domains shown)
VH: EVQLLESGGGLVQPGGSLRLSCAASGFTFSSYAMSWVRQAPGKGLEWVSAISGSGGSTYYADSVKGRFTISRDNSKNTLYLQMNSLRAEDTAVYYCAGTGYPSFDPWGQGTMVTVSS
VL: B1 VL with D87G, T94R, M95A
notes: as for B6
B11: 196-e06 (antibody, V domains shown)
VH: EVQLLESGGGLVQPGGSLRLSCAASGFTFSSYAMSWVRQAPGKGLEWVSAISGSGGSTYYADSVKGRFAISRDNSKNTLYLQMNSLRAEDTAVYYCAGSRTVQFDPWGQGTMVTVSS
VL: B1 VL
notes: Tested as IgG converted from scFv; also called 196-e06 IgG
B12: 198-a09 (antibody, V domains shown)
VH: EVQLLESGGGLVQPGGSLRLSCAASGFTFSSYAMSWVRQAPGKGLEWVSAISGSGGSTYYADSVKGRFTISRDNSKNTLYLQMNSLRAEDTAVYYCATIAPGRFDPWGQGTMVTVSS
VL: B1 VL with S13P
notes: Tested as IgG converted from scFv; also called 198-a09 IgG
B13: 194-e06 (antibody, V domains shown)
VH: not shown
VL: B1 VL with T91S, Y93F, M95S, S97L, T98P, F99W, M100V
B14: g-194-e06 (antibody, V domains shown)
VH: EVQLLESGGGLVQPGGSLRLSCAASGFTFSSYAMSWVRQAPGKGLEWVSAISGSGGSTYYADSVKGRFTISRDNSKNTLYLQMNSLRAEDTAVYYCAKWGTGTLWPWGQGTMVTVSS
VL: B1 VL with I49M, L50I, S76T, T91S, Y93F, M95S, S97L, T98P, F99W, M100V
notes: Tested as IgG
B15: g-196-g03 (antibody, V domains shown)
VH: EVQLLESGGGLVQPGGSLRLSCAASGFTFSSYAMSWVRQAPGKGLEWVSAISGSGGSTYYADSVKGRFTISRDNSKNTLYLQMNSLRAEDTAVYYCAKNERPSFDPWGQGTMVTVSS
VL: B1 VL with I49M, L50I, S76T
notes: Tested as IgG; also called germlined version of 196-g03
B16: scFv variant of 129-1c4 with VH CDR3 SEQ ID NO: 37 and VL CDR3 SEQ ID NO: 40 (scFv, V domains shown)
VH: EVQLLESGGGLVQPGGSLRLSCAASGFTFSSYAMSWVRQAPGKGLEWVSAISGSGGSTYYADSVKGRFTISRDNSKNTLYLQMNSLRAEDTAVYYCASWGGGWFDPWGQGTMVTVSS
VL: B1 VL with T91S, Y93F, M95S, S97L, T98P, F99W, M100V
notes: His-tagged purified scFv; also called 37 / 40
B17: scFv variant of 129-1c4 with VH CDR3 SEQ ID NO: 165 and VL CDR3 SEQ ID NO: 47 (scFv, V domains shown)
VH: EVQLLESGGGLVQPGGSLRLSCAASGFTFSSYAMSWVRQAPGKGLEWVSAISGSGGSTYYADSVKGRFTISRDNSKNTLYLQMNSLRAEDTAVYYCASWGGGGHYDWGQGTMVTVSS
VL: B1 VL with T91S, Y93F, M95S
notes: His-tagged purified scFv; also called 165 / 47
B18: scFv variant of 129-1c4 with VH CDR3 SEQ ID NO: 37 and VL CDR3 SEQ ID NO: 43 (scFv, V domains shown)
VH: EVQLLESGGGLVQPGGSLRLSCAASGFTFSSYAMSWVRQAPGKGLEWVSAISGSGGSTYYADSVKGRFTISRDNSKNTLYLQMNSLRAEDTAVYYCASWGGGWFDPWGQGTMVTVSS
VL: B1 VL
notes: His-tagged purified scFv; also called 37 / 43
B19: scFv variant of 129-1c4 with VH CDR3 SEQ ID NO: 37 and VL CDR3 SEQ ID NO: 297 (scFv, V domains shown)
VH: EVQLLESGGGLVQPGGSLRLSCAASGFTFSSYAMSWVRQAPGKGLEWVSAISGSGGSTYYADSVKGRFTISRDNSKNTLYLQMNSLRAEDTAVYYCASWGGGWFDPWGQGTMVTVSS
VL: B1 VL with T91S, Y93F, M95S, G96S, S97A, T98H, M100V
notes: His-tagged purified scFv; also called 37 / 297
B20: scFv variant of 129-1c4 with VH CDR3 SEQ ID NO: 37 and VL CDR3 SEQ ID NO: 303 (scFv, V domains shown)
VH: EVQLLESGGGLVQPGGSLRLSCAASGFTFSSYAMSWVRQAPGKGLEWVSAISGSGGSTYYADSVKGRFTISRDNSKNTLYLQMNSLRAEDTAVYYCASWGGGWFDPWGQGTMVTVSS
VL: B1 VL with T91S, Y93F, M95S, S97R, T98A, M100N
notes: His-tagged purified scFv; also called 37 / 303
B21: scFv variant of 129-1c4 with VH CDR3 SEQ ID NO: 37 and VL CDR3 SEQ ID NO: 277 (scFv, V domains shown)
VH: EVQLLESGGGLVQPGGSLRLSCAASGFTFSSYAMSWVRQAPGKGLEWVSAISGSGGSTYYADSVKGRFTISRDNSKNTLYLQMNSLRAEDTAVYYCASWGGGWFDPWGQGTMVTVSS
VL: B1 VL with T91S, Y93F, M95S, S97D, T98H, F99W, M100V
notes: His-tagged purified scFv; also called 37 / 277
B22: scFv variant of 129-1c4 with VH CDR3 SEQ ID NO: 37 and VL CDR3 SEQ ID NO: 274 (scFv, V domains shown)
VH: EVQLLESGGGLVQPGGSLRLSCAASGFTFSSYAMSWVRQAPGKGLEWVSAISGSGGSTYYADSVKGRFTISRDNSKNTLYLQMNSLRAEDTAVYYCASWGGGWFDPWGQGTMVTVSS
VL: B1 VL with T91G, S92A, T94S, M95A
notes: His-tagged purified scFv; also called 37 / 274
B23: scFv variant of 129-1c4 with VH CDR3 SEQ ID NO: 37 and VL CDR3 SEQ ID NO: 299 (scFv, V domains shown)
VH: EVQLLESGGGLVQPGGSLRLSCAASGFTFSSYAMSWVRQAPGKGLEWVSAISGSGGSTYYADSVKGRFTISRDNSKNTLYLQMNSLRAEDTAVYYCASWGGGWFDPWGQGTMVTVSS
VL: B1 VL with T91S, Y93F, M95S, G96D, S97R, T98A, M100N
notes: His-tagged purified scFv; also called 37 / 299
B24: scFv variant of 129-1c4 with VH CDR3 SEQ ID NO: 37 and VL CDR3 SEQ ID NO: 288 (scFv, V domains shown)
VH: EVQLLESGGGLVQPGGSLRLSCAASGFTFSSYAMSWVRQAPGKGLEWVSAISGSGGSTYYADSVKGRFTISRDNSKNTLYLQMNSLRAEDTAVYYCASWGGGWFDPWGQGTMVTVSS
VL: B1 VL with T91S, Y93F, M95S, G96A, S97I, T98P, F99W, M100S
notes: His-tagged purified scFv; also called 37 / 288
B25: scFv variant of 129-1c4 with VH CDR3 SEQ ID NO: 37 and VL CDR3 SEQ ID NO: 305 (scFv, V domains shown)
VH: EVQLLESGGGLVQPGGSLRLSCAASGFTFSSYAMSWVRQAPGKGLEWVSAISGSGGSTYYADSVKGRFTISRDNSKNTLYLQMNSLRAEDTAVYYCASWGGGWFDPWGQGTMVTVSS
VL: B1 VL with T91S, Y93F, M95S, S97Q, T98Q, F99W, M100V
notes: His-tagged purified scFv; also called 37 / 305
B26: scFv variant of 129-1c4 with VH CDR3 SEQ ID NO: 195 and VL CDR3 SEQ ID NO: 47 (scFv, V domains shown)
VH: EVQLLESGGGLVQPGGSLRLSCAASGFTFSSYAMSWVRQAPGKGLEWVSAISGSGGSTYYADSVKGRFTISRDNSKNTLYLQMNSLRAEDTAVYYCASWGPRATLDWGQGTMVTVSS
VL: B1 VL with T91S, Y93F, M95S
notes: His-tagged purified scFv; also called 195 / 47
B27: scFv variant of 129-1c4 with VH CDR3 SEQ ID NO: 37 and VL CDR3 SEQ ID NO: 287 (scFv, V domains shown)
VH: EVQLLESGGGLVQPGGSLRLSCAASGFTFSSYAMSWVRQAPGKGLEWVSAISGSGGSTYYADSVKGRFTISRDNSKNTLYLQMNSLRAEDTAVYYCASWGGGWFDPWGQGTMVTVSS
VL: B1 VL with T91S, Y93F, M95S, S97I, T98K, M100T
notes: His-tagged purified scFv; also called 37 / 287
B28: scFv variant of 129-1c4 with VH CDR3 SEQ ID NO: 37 and VL CDR3 SEQ ID NO: 295 (scFv, V domains shown)
VH: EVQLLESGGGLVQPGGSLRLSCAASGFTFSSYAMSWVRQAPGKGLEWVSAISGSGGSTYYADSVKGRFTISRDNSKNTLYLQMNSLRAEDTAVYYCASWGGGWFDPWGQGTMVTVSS
VL: B1 VL with T91S, Y93F, M95S, S97K, M100V
notes: His-tagged purified scFv; also called 37 / 295
B29: scFv variant of 129-1c4 with VH CDR3 SEQ ID NO: 37 and VL CDR3 SEQ ID NO: 261 (scFv, V domains shown)
VH: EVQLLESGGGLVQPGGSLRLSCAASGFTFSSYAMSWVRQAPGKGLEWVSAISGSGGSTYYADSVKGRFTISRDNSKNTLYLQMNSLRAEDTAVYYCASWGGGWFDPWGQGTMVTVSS
VL: B1 VL with T91S, Y93F, M95S, G96Q, S97I, T98P, F99W, M100A
notes: His-tagged purified scFv; also called 37 / 261
B30: scFv variant of 129-1c4 with VH CDR3 SEQ ID NO: 37 and VL CDR3 SEQ ID NO: 304 (scFv, V domains shown)
VH: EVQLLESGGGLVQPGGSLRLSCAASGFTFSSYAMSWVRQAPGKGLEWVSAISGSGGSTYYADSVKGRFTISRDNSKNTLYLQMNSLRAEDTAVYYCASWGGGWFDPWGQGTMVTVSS
VL: B1 VL with T91S, Y93F, M95S, S97P, T98V, M100N
notes: His-tagged purified scFv; also called 37 / 304

Target: T2, human P-cadherin on the surface of cells (human, UniProt P22223 108-829)
Assay: cell-based or functional assay

Binder | A431 Adhesion Assay Mean IC50 (nM) (n = 3)
B1 | 0.149 nM
B2 | 0.114 nM
B3 | 0.08 nM
B4 | 0.168 nM
B5 | 0.158 nM
B6 | 0.217 nM
B7 | 0.229 nM
B8 | 0.148 nM
B9 | 0.114 nM
B10 | 0.147 nM
B11 | 0.117 nM
B12 | 0.097 nM
B13 | 0.162 nM

Target: T2, human P-cadherin on the surface of cells
Assay: cell-based or functional assay
Remark: another data set of the same source

Binder | A431 Adhesion Assay Mean IC50 (nM) (n = 2)
B1 | 0.39 nM
B2 | 0.97 nM
B4 | 0.63 nM
B5 | 0.73 nM
B7 | 2.1 nM
B14 | 0.77 nM
B15 | 1.05 nM
B13 | 0.46 nM

Target: T2, human P-cadherin on the surface of cells
Assay: cell-based or functional assay
Remark: another data set of the same source

Binder | SW480 Aggregation Assay Mean IC50
B3 | 1.5 nM
B6 | 1.1 nM
B8 | 3.2 nM
B15 | 0.9 nM
B9 | 1.7 nM
B10 | 1.3 nM
B11 | 1.9 nM
B12 | 2.9 nM
B13 | 0.7 nM

Target: T2, human P-cadherin on the surface of cells
Assay: cell-based or functional assay
Remark: another data set of the same source

Binder | SW480 Spheroid Disruption Assay, Fold Increased Disruption vs Control at 5 nM
B3 | 10 fold
B6 | 10 fold
B8 | 10 fold
B15 | 13 fold
B9 | 10 fold
B10 | 16 fold
B11 | 10 fold
B12 | 13 fold

Target: T3, Recombinant human P-cadherin Fc (R&D Systems 861-PC-100) (human, UniProt P22223 108-654)
T3 construct: also called recombinant human P-cadherin/Fc fusion protein; hCad/Fc; not shown: Fc part of the bought fusion protein
Assay: ELISA on coated antigen, relative KD

Binder | Kd
B3 | 0.045 nM
B6 | 0.116 nM
B14 | 0.191 nM
B8 | 0.102 nM
B15 | 0.449 nM
B9 | 0.12 nM
B10 | 0.112 nM
B11 | 0.062 nM
B12 | 0.078 nM

Target: T1, recombinant human E-cadherin (R&D …)
Assay: ELISA on coated antigen, relative KD

Binder | Kd
B3 | 0.063 nM
B6 | 0.682 nM
B14 | 0.794 nM
B15 | 7.51 nM
B9 | 11.5 nM
B10 | 20.5 nM
B11 | 0.187 nM
B12 | 19.4 nM

Target: T3, Recombinant human P-cadherin Fc (R&D …)
Assay: ELISA; KD on E-cadherin over KD on P-cadherin

Binder | KD(E)/KD(P)
B3 | 1.4
B6 | 6
B14 | 4
B8 | 326
B15 | 17
B9 | 96
B10 | 183
B11 | 3
B12 | 249

Target: T2, human P-cadherin on the surface of cells
Assay: epitope competition on A431 cells; competitor: biotinylated 129-1c4 IgG at 1x KD, DELFIA

Binder | IC50
B16 | 2.49 nM
B17 | 5.11 nM
B18 | 5.67 nM
B19 | 2.49 nM
B20 | 1.47 nM
B21 | 2.2 nM
B22 | 8.73 nM
B23 | 1.97 nM
B24 | 6.67 nM
B25 | 2.19 nM
B26 | 1.29 nM
B27 | 10.5 nM
B28 | 0.8 nM
B29 | 1.78 nM
B30 | 1.1 nM
